B1: hu30L2H2 (antibody, human IgG1, kappa)
heavy: not shown
light: DIVMTQSPDSLAVSLGERATINCKASENVGYVSWYQQKPGQPPKLLIYGASNRYTGVPDRFSGSGSATDFTLTISSLQAEDVAVYHCGQSYSYPLTFGQGTKLEIKRTVAAPSVFIFPPSDEQLKSGTASVVCLLNNFYPREAKVQWKVDNALQSGNSQESVTEQDSKDSTYSLSSTLTLSKADYEKHKVYACEVTHQGLSSPVTKSFNRGEC
B2: hu30L1H1 (antibody, human IgG1, kappa, V domains shown)
VH: EVQLVQSGAEVKKPGASVKVSCKASGYTFTDYYMNWVRQAPGQSLEWMGIINPYNGDTSYNQKFRGRVTITVDKSASTAYMELSSLRSEDTAVYYCARYHYGPHLEGYFDVWGQGTTVTVSS
VL: DIVMTQSPDSLAVSLGERATINCKASENVGYVSWYQQKPGQPPKLLIYGASNRYTGVPDRFSGSGSGTDFTLTISSLQAEDVAVYYCGQSYSYPLTFGQGTKLEIKR
B3: hu30L1H3 (antibody, human IgG1, kappa, V domains shown)
VH: EVRLVQSGAEVKKPGASVKVSCKASGYTFTDYYMNWVRQAPGQSLEWMGIINPYQGDTSYNQKFRGRVTLTVDKSASTAYMELSSLRSEDTAVYYCARYHYGPHLEGYFDVWGQGTTVTVSS
VL: DIVMTQSPDSLAVSLGERATINCKASENVGYVSWYQQKPGQPPKLLIYGASNRYTGVPDRFSGSGSGTDFTLTISSLQAEDVAVYYCGQSYSYPLTFGQGTKLEIKR
B4: hu30L1H2 (antibody, human IgG1, kappa)
heavy: not shown
light: DIVMTQSPDSLAVSLGERATINCKASENVGYVSWYQQKPGQPPKLLIYGASNRYTGVPDRFSGSGSGTDFTLTISSLQAEDVAVYYCGQSYSYPLTFGQGTKLEIKRTVAAPSVFIFPPSDEQLKSGTASVVCLLNNFYPREAKVQWKVDNALQSGNSQESVTEQDSKDSTYSLSSTLTLSKADYEKHKVYACEVTHQGLSSPVTKSFNRGEC
B5: hu30L1H6 (antibody, human IgG1, kappa, V domains shown)
VH: EVRLVQSGAEVKKPGASVKVSCKASGYTFTDYYMNWVRQAPGQSLEWMGIINPYNVDTSYNQKFRGRVTLTVDKSASTAYMELSSLRSEDTAVYYCARYHYGPHLEGYFDVWGQGTTVTVSS
VL: DIVMTQSPDSLAVSLGERATINCKASENVGYVSWYQQKPGQPPKLLIYGASNRYTGVPDRFSGSGSGTDFTLTISSLQAEDVAVYYCGQSYSYPLTFGQGTKLEIKR
B6: hu30L1H4 (antibody, human IgG1, kappa, V domains shown)
VH: EVRLVQSGAEVKKPGASVKVSCKASGYTFTDYYMNWVRQAPGQSLEWMGIINPYSGDTSYNQKFRGRVTLTVDKSASTAYMELSSLRSEDTAVYYCARYHYGPHLEGYFDVWGQGTTVTVSS
VL: DIVMTQSPDSLAVSLGERATINCKASENVGYVSWYQQKPGQPPKLLIYGASNRYTGVPDRFSGSGSGTDFTLTISSLQAEDVAVYYCGQSYSYPLTFGQGTKLEIKR
B7: hu30L2H3 (antibody, human IgG1, kappa, V domains shown)
VH: EVRLVQSGAEVKKPGASVKVSCKASGYTFTDYYMNWVRQAPGQSLEWMGIINPYQGDTSYNQKFRGRVTLTVDKSASTAYMELSSLRSEDTAVYYCARYHYGPHLEGYFDVWGQGTTVTVSS
VL: DIVMTQSPDSLAVSLGERATINCKASENVGYVSWYQQKPGQPPKLLIYGASNRYTGVPDRFSGSGSATDFTLTISSLQAEDVAVYHCGQSYSYPLTFGQGTKLEIKR
B8: hu30L2H1 (antibody, human IgG1, kappa, V domains shown)
VH: EVQLVQSGAEVKKPGASVKVSCKASGYTFTDYYMNWVRQAPGQSLEWMGIINPYNGDTSYNQKFRGRVTITVDKSASTAYMELSSLRSEDTAVYYCARYHYGPHLEGYFDVWGQGTTVTVSS
VL: DIVMTQSPDSLAVSLGERATINCKASENVGYVSWYQQKPGQPPKLLIYGASNRYTGVPDRFSGSGSATDFTLTISSLQAEDVAVYHCGQSYSYPLTFGQGTKLEIKR
B9: hu30L2H5 (antibody, human IgG1, kappa, V domains shown)
VH: EVRLVQSGAEVKKPGASVKVSCKASGYTFTDYYMNWVRQAPGQSLEWMGIINPYTGDTSYNQKFRGRVTLTVDKSASTAYMELSSLRSEDTAVYYCARYHYGPHLEGYFDVWGQGTTVTVSS
VL: DIVMTQSPDSLAVSLGERATINCKASENVGYVSWYQQKPGQPPKLLIYGASNRYTGVPDRFSGSGSATDFTLTISSLQAEDVAVYHCGQSYSYPLTFGQGTKLEIKR
B10: hu30L2H6 (antibody, human IgG1, kappa, V domains shown)
VH: EVRLVQSGAEVKKPGASVKVSCKASGYTFTDYYMNWVRQAPGQSLEWMGIINPYNVDTSYNQKFRGRVTLTVDKSASTAYMELSSLRSEDTAVYYCARYHYGPHLEGYFDVWGQGTTVTVSS
VL: DIVMTQSPDSLAVSLGERATINCKASENVGYVSWYQQKPGQPPKLLIYGASNRYTGVPDRFSGSGSATDFTLTISSLQAEDVAVYHCGQSYSYPLTFGQGTKLEIKR
B11: hu30L2H4 (antibody, human IgG1, kappa, V domains shown)
VH: EVRLVQSGAEVKKPGASVKVSCKASGYTFTDYYMNWVRQAPGQSLEWMGIINPYSGDTSYNQKFRGRVTLTVDKSASTAYMELSSLRSEDTAVYYCARYHYGPHLEGYFDVWGQGTTVTVSS
VL: DIVMTQSPDSLAVSLGERATINCKASENVGYVSWYQQKPGQPPKLLIYGASNRYTGVPDRFSGSGSATDFTLTISSLQAEDVAVYHCGQSYSYPLTFGQGTKLEIKR
B12: hu30L5H10 (antibody, human IgG1, kappa, V domains shown)
VH: EVRLVQSGAEVKKPGASVKVSCKASGYTFTDYYMNWVRQSHGQSLEWMGIINPYTGDTSYNQKFRGRVTLTVDKSASTAYMELSSLRSEDTAVYYCARYHYGPHLEGYFDVWGQGTTVTVSS
VL: DIQMTQSPSSLSASVGDRVTITCKASENVGYVSWYQQKPGKSPKLLIYGASNRYTGVPDRFSGSGSGTDFTLTISSLQPEDFATYYCGQSYSYPLTFGSGTKLEIKR
B13: hu30L5H11 (antibody, human IgG1, kappa, V domains shown)
VH: EVRLVQFGAVVKKPGASVKVSCKASGYTFTDYYMNWVRQAPGQSLEWMGIINPYTGDTSYNQKFRGRVTLTVDKSSSTAYMELSSLTSEDTAVYYCARYHYGPHLEGYFDVWGQGTTVTVSS
VL: DIQMTQSPSSLSASVGDRVTITCKASENVGYVSWYQQKPGKSPKLLIYGASNRYTGVPDRFSGSGSGTDFTLTISSLQPEDFATYYCGQSYSYPLTFGSGTKLEIKR

How the values were obtained:
human DLL3 on cells = biological target: T1, human DLL3 on cells (human, UniProt Q9NYJ7 27-618); test: flow cytometry, DLL3/H82 cells; parameters: key to Emax: geometric mean fluorescence intensity (flow cytometry)
T1 construct: Endogenous on H1184 and SHP77; Cell line is named under assay; also called H1184; DLL3/H82
T1 sequence: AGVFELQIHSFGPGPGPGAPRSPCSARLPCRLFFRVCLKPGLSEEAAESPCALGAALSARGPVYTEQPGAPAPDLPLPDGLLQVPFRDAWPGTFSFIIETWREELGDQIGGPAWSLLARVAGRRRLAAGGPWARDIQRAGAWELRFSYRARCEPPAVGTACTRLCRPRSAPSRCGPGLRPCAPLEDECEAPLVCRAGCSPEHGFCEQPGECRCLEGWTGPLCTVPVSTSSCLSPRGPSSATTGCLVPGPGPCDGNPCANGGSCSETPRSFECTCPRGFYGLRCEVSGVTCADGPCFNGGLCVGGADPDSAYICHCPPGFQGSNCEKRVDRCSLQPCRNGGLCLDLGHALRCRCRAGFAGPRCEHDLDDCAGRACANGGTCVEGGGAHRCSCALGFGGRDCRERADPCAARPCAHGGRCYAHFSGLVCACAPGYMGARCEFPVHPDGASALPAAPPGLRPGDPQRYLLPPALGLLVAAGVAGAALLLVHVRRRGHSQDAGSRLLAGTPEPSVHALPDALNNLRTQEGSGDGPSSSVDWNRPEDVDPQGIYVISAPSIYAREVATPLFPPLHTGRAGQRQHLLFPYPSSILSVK
Method: The plates were centrifuged at 300 g for 5 min, and the supernatant was removed. Different concentrations of test antibodies were added at 100 μL/well. The plates were incubated in the dark in a refrigerator at 4° C. for 1 h. After 3 centrifugal washes at 300 g, working concentrations of APC anti-human IgG Fc (BioLegend, 410712) or PE F(ab′)2-goat anti-human IgG (invitrogen, H10104) were added. The plates were incubated in the dark in a refrigerator at 4° C. for 40 min. After 3 centrifugal washes at 300 g, the geometric mean fluorescence intensity was measured on an Invitrogen flow cytometer, and the EC50 values for the binding of the antibodies to DLL3-expressing cells were calculated.

[1] = biological target: T2, human DLL3 (ACRO, DLL3-H52H4) (human, UniProt Q9NYJ7 27-492); test: SPR Biacore 8K, Ab captured on Protein A
T2 construct: Bought
T2 sequence: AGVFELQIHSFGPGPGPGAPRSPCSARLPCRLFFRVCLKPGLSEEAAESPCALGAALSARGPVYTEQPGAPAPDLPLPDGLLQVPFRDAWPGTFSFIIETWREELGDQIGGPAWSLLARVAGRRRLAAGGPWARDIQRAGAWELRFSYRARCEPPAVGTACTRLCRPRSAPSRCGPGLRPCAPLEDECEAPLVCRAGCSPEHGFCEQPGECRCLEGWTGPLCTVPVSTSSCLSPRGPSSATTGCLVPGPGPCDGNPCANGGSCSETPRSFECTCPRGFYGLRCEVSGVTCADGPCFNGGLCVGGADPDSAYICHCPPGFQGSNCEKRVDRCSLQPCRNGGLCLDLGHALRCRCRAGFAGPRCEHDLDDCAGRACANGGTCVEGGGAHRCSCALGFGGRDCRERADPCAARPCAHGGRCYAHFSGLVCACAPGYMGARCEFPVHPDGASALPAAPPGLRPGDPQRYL
Excerpt: Test antibodies were affinity-captured with a Protein A biosensor chip (Cat. #29127556, Cytiva) for 18 seconds, and then the antigens human DLL3 (ACRO, DLL3-H52H4), cynomolgus monkey DLL3 (KACTUS, DLL-RM103), mouse DLL3 (KACTUS, DLL-MM103), human CD3D&3E (ACRO, CDD-H52W1), and monkey CD3D&3E (ACRO, CDD-C52W4) were allowed to flow through the surface of the chip for 180 seconds, followed by 600 seconds of dissociation. Reaction signals were detected in real time using a Biacore 8K (Cytiva) instrument to obtain association and dissociation curves. After the dissociation in each experimental cycle, the chip was washed and regenerated with a 10 mM glycine-hydrochloric acid solution (pH 1.5, Cat. #BR-1003-54, Cytiva). Data fitting was performed using a 1:1 Model.

Row | Binder | EC50 (human DLL3 on cells) [nM] | Emax (human DLL3 on cells) | Kd [1] [nM] | koff [1] [s⁻¹] | kon [1] [M⁻¹ s⁻¹]
1 | B1 | 0.61 | 4910 | 1.01 | 0.000921 | 914000
2 | B2 | 0.74 | 5870 | 0.919 | 0.000787 | 857000
3 | B3 | 0.75 | 5560 | 1.99 | 0.00185 | 929000
4 | B4 | 0.86 | 6050 | 1.32 | 0.00131 | 989000
5 | B5 | 0.56 | 5750 | 1.38 | 0.00143 | 1.04e+06
6 | B6 | 0.57 | 5360 | 1.28 | 0.00116 | 905000
7 | B7 | 0.59 | 4720 | 1.41 | 0.00138 | 981000
8 | B8 | 0.89 | 5740 | 0.658 | 0.000571 | 867000
9 | B9 | 0.65 | 5570 | 0.969 | 0.000907 | 935000
10 | B10 | 0.69 | 5420 | 1.08 | 0.000988 | 915000
11 | B11 | 0.54 | 5440 | 1.07 | 0.00104 | 966000
12 | B12 |  |  | 2.05 | 0.000949 | 464000
13 | B13 |  |  | 3.06 | 0.0012 | 391000

Reference: US20250376519A1 (JIANGSU HENGRUI PHARMACEUTICALS, published 2025)
